One block for each molecule: values may come before it.
Assays:
[1] = molecular target: Myxococcus xanthus Mutual gliding motility A, MxMglA(His6) (Myxococcus xanthus) (UniProt Q1DB04); test: fluorescence polarisation; fluorescence anisotropy of 400 nM mant-GppNHp (m-GNP) mixed with 2 μM MxMglA or its mutant, titrated with MxMglB or MxMglB^ΔCt (concentration as MglB dimer); one site-specific binding fit
[2] = molecular target: T1, MxMglA^Q82L, active site mutant of MxMglA (Myxococcus xanthus, UniProt Q1DB04 1-195, Q82L); test: as above; conditions: both partners purified
T1 construct: MglA of Myxococcus xanthus with Q82L (active site); Mutant of m1; source: E. coli BL21-DE3, purified (protocol similar to MxMglA(His6))
T1 sequence: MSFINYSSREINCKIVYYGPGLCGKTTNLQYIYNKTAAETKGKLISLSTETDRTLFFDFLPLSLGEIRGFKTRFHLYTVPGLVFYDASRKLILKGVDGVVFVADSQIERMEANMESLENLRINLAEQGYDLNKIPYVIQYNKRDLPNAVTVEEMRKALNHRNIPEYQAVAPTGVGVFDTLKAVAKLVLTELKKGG

[3] = molecular target: T2, MxMglA^K, MxMglA K181A and K185A double mutant (Myxococcus xanthus, UniProt Q1DB04 1-195, K181A | K185A); test: as above; conditions: both partners purified
T2 construct: Mutant of m1; source: E. coli BL21-DE3, purified (protocol similar to MxMglA(His6))
T2 sequence: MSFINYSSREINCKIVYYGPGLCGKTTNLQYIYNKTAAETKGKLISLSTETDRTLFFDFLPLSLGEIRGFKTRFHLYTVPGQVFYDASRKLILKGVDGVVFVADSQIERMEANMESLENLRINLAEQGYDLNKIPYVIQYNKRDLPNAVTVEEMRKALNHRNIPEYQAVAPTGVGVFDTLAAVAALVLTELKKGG

[4] = molecular target: T3, MxMglA^L, MxMglA L64A and I67A double mutant (Myxococcus xanthus, UniProt Q1DB04 1-195, L64A | I67A); test: as above; conditions: both partners purified
T3 construct: MglA of Myxococcus xanthus with L64A and I67A (β2-β3 loop, interswitch region); Mutant of m1; source: E. coli BL21-DE3, purified (protocol similar to MxMglA(His6))
T3 sequence: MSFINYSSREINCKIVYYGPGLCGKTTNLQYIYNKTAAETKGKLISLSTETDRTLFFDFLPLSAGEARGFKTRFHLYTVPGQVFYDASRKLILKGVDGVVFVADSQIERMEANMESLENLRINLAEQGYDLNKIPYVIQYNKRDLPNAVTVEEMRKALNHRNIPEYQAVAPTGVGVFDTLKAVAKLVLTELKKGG

[5] = molecular target: T4, Myxococcus xanthus Mutual gliding motility A, MxMglA(His6) (Myxococcus xanthus, UniProt Q1DB04 1-195); test: as above; conditions: both partners purified
T4 construct: MglA, small Ras-like GTPase of Myxococcus xanthus; gene mglA amplified from genomic DNA (DSMZ 16526) and cloned into pHis17 between NdeI and BamHI; In the assays it carried m-GDP, m-GNP (mant-GppNHp) or GTPγS; source: E. coli BL21-DE3, purified (HisTrap, Superdex75); not shown: His6, C-terminal, kept
T4 sequence: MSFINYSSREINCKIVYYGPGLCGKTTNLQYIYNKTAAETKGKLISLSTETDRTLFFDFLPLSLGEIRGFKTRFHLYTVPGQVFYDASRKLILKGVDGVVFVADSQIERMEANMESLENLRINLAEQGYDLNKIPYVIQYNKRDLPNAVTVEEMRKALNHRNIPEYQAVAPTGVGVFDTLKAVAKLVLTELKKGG

[6] = molecular target: T4, Myxococcus xanthus Mutual gliding …; test: fluorescence polarisation; fluorescence anisotropy of 400 nM mant-GDP (m-GDP) mixed with 2 μM MxMglA or its mutant, titrated with MxMglB or MxMglB^ΔCt (concentration as MglB dimer); one site-specific binding fit; conditions: both partners purified
[7] = molecular target: T5, Myxococcus xanthus Mutual gliding motility B, full-length MxMglB(His6) (Myxococcus xanthus), Q1DB03; test: crystal structure; MxMglA and MxMglB mixed 1:1 (MglB as monomer), 4 mg/ml each, in A50 buffer with 5 mM MgCl2 and 2 mM GTPγS; PEG 4000 or PEG 3350 with 200 mM ammonium sulphate; conditions: remark: other sources report otherwise
T5 chain: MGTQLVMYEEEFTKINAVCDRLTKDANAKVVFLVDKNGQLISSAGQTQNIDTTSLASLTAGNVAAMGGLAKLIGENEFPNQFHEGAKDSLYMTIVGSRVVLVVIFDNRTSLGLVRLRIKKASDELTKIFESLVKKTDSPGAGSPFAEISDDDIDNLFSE

[8] = molecular target: T4, Myxococcus xanthus Mutual gliding …; test: as above; conditions: both partners purified

Molecule: MxMglB^ΔCt(His6), truncated MxMglB lacking the C-terminal helix (domain or fragment)
Kd [1]: 290 nM

B1: Myxococcus xanthus Mutual gliding motility B, full-length MxMglB(His6) (natural protein, UniProt Q1DB03 1-159, looked up)
chain: MGTQLVMYEEEFTKINAVCDRLTKDANAKVVFLVDKNGQLISSAGQTQNIDTTSLASLTAGNVAAMGGLAKLIGENEFPNQFHEGAKDSLYMTIVGSRVVLVVIFDNRTSLGLVRLRIKKASDELTKIFESLVKKTDSPGAGSPFAEISDDDIDNLFSE
notes: Rbl/LC7 core residues 10-131, Ct-helix residues 147-157; also called MglB1 and MglB2 (the two protomers in the crystal); source: E. coli BL21-AI, purified (HisTrap, Superdex75); not shown: His6, C-terminal, kept
binding result [2]: binds | binding result [3]: binds | binding result [4]: binds | Kd [5]: 100 ± 40 nM | Kd [6]: 120 ± 30 nM | stoichiometry N [7]: 2

Continued, values first:

binding result [8]: binds
B2: selenomethionine-labeled MxMglB^L156M (natural protein, Myxococcus xanthus)
chain: MGTQLVMYEEEFTKINAVCDRLTKDANAKVVFLVDKNGQLISSAGQTQNIDTTSLASLTAGNVAAMGGLAKLIGENEFPNQFHEGAKDSLYMTIVGSRVVLVVIFDNRTSLGLVRLRIKKASDELTKIFESLVKKTDSPGAGSPFAEISDDDIDNMFSE
modifications: selenomethionine-labeled
notes: MglB of Myxococcus xanthus with Leu156 mutated to methionine; construct without histidine tag; Made to confirm the registry of the Ct-helix; Probably a point mutant of full-length MglB

binding result [8]: binds
B3: selenomethionine-labeled MxMglB^I148M (natural protein, Myxococcus xanthus)
chain: MGTQLVMYEEEFTKINAVCDRLTKDANAKVVFLVDKNGQLISSAGQTQNIDTTSLASLTAGNVAAMGGLAKLIGENEFPNQFHEGAKDSLYMTIVGSRVVLVVIFDNRTSLGLVRLRIKKASDELTKIFESLVKKTDSPGAGSPFAEMSDDDIDNLFSE
modifications: selenomethionine-labeled
notes: MglB of Myxococcus xanthus with Ile148 mutated to methionine; construct without histidine tag; Made to confirm the registry of the Ct-helix; Probably a point mutant of full-length MglB

Reference: article PMC6785124, “Allosteric regulation of a prokaryotic small Ras-like GTPase contributes to cell polarity oscillations in bacterial motility” (PLoS Biology, 2019)
